Consider two molecules from patent publication US20240425593A1 (SICHUAN KELUN BIOTECH BIOPHARMACEUTICAL, published 2024).

The target in experiment [1] is PD-1 on Jurkat-PD-1-NFAT cells (UniProt Q15116 25-288, limits assumed). The experiment is described as follows: cell-based or functional assay.
Experiment [2] deals with T1, human PD-1-ECD-mFc (human; mouse, UniProt Q15116 25-170).
T1 construct: extracellular domain; Made in HEK293F cells; also called human PD-1-mFc; PD-1-mFc; not shown: mouse Fc (mFc) amino acids, AB097847.1
The experiment is described as follows: ELISA, coated human PD-1-mFc.

Experiment [3] has as its target T2, FcRn protein (UniProt P55899 24-297; P61769 21-119).
T2 construct: Immobilised on an SA biosensor
The experiment is described as follows: BLI (Octet ForteBio), FcRn on SA biosensor, antibody in PBST pH6.0. An excerpt: The antibody Fc can bind to FcRn so that it cannot be easily cleared in vivo, thus prolonging the half-life in vivo.
On the technique in general: BLI is a label-free optical method that tracks binding on a fibre tip over time.

The target in experiment [4] is T3, full-length human PD-1 on CHO-hPD-1 cells (human, UniProt Q15116 25-288).
T3 construct: whole, on cells; also called PD-1 on the cell membrane surface of CHO-hPD-1
Nature of the experiment: flow cytometry on CHO-hPD-1 cells with FITC-labeled antibody. (In general: A flow cytometer gives signals particle by particle.)

The target of experiment [5] is T4, human PD-1-His (human, UniProt Q15116 25-170).
T4 construct: extracellular domain; not shown: His tag
The experiment is described as follows: BLI (Octet ForteBio), antibody on ProA biosensor, PD-1-His in solution.

Experiment [6] concerns the target T3, full-length human PD-1 on CHO-hPD-1 …. Nature of the experiment: competitive flow cytometry on CHO-hPD-1 cells; blocked ligand PD-L1 (PD-L1-mFc-Bio). An excerpt: (§1) The data were imported into Graphprism to calculate IC₅₀ values.
Experiment [7] has the same target. The experiment is described as follows: competitive FACS on CHO-hPD-1 cells, competitor PD-L1-mFc-Bio.
Excerpt: as §1

The target of experiment [8] is T5, CD64 protein (UniProt P12314 16-288, limits assumed).
T5 construct: also called FcγRI
The experiment is described as follows: BLI (Octet ForteBio), CD64 immobilised on an SA biosensor, antibody in solution.

In experiment [9] the target is T6, human ICOS (human, UniProt Q9Y6W8 21-140, limits assumed).
T6 construct: Bought
T6 sequence (looked up): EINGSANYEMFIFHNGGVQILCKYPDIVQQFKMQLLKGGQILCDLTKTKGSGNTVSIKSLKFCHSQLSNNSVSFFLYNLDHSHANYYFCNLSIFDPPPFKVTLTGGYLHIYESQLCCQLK
The experiment is described as follows: ELISA, coated antigen 1 µg/mL. Here is the method: (§2) After washing, a goat anti-human IgG secondary antibody labeled with horseradish peroxidase diluted in phosphate buffer (PBS) containing 2% BSA in a ratio of 1:15000 was added, followed by incubating at 37° C. for 1 hour. After washing, the TMB chromogen solution was used for developing, and the absorbance value was read using a microplate reader at 450 nm. The data were imported into Graphprism to calculate EC₅₀ values.

Experiment [10] concerns the target T7, monkey PD-1-hFc (monkey).
T7 construct: Extracellular domain of monkey PD-1 fused to an hFc tag, made in house; not shown: The hFc tag and any linker
T7 chain: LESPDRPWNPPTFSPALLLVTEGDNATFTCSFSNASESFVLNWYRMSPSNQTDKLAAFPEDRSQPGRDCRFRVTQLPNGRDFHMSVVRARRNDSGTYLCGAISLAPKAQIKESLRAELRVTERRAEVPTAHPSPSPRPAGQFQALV
Nature of the experiment: ELISA, coated monkey PD-1-hFc. The procedure: The specific experimental steps were as follows: human PD-1-hFc and monkey PD-1-hFc antigens were diluted to 1 μg/mL with CBS solution, then coated on a 96-well ELISA plate (purchased from Guangzhou Jiete Bio) at 4° C. overnight. […] After washing, a goat anti-human secondary antibody (FC) labeled with horseradish peroxidase diluted in phosphate buffer (PBS) containing 2% BSA in a ratio of 1:15000 was added, followed by incubating at 37° C. for 1 hour. After washing, the TMB chromogen solution was used for developing, and the absorbance value was read using a microplate reader at 450 nm, and the data were imported into Graphprism to calculate EC₅₀ values.
A general note: An ELISA detects its analyte on a solid surface through an enzyme-linked reagent.

For experiment [11], the target named is T8, human PD-L1-his (human, UniProt Q9NZQ7 19-239, limits assumed).
T8 construct: Bought; not shown: His tag
The experiment is described as follows: ELISA on coated human PD-L1-his, HRP goat anti-human IgG detection. Here is the method:
as §2

Experiment [12] deals with T3, full-length human PD-1 on CHO-hPD-1 …. Nature of the experiment: flow cytometry, FITC-labelled antibody on CHO-hPD-1 cells.
For experiment [13], the target named is T9, human BTLA-his (human, UniProt Q7Z6A9 31-157, limits assumed).
T9 construct: Bought; not shown: His tag
Nature of the experiment: ELISA on coated human BTLA-his, HRP goat anti-human IgG detection. The procedure:
as §2

Experiment [14] addresses T5, CD64 protein. The experiment is described as follows: BLI (Octet ForteBio), CD64 immobilised on an SA biosensor, antibody in solution. The source holds these as a separate data set.

Like-named read-outs stand apart in the source and are kept apart here.

B1: 35E6-HZ1-IgG1-1D (antibody)
heavy: QVQLQESGPGLVKPSETLSLTCTVSGYSITSDYWSWIRQPPGKGLEWIGYINYDGDNNYNPSLKSRVTISRDTSKNQFSLKLSSVTAADTAVYYCARGGFDYWGQGTLVTVSSASTKGPSVFPLAPSSKSTSGGTAALGCLVKDYFPEPVTVSWNSGALTSGVHTFPAVLQSSGLYSLSSVVTVPSSSLGTQTYICNVNHKPSNTKVDKRVEPKSCDKTHTCPPCPAPEAAGGPSVFLFPPKPKDTLMISRTPEVTCVVVAVSHEDPEVKFNWYVDGVEVHNAKTKPREEQYNSTYRVVSVLTVLHQDWLNGKEYKCKVSNKALPAPIEKTISKAKGQPREPQVYTLPPSREEMTKNQVSLTCLVKGFYPSDIAVEWESNGQPENNYKTTPPVLDSDGSFFLYSKLTVDKSRWQQGNVFSCSVMHEALHAHYTQKSLSLSPGK
light: EIVLTQSPATLSLSPGERATLSCRASESVEYYGTNLMQWYQQKPGQPPRLLIYFASNVASGIPARFSGSGSGTDFTLTISSLEPEDFAVYFCQQSKKVPSTFGQGTKVEIKRTVAAPSVFIFPPSDEQLKSGTASVVCLLNNFYPREAKVQWKVDNALQSGNSQESVTEQDSKDSTYSLSSTLTLSKADYEKHKVYACEVTHQGLSSPVTKSFNRGEC
notes: also called IgG1-1D mutant anti-PD-1 humanized antibody
The term EC50 denotes the concentration that produces a half-maximal response. One may read the Kd as a measure of binding affinity in units of concentration. The term koff denotes the rate constant with which the complex falls apart. For orientation: kon means a measure of how fast the partners come together. By EC50 (read off the curve) is commonly meant the concentration that produces a half-maximal response. As usually defined, the IC50 is the midpoint of a concentration-inhibition curve. Take B1: the “EC50 by the PD-1/PD-L1 luciferase reporter system” value in [1] is 2.81 nM. Moreover, the figures for the EC50 in [2], in [10] and in [12] were 0.121 nM, 0.309 nM and 0.078 nM, respectively. Besides, the results for the Kd in experiment [3] and in experiment [5] were 7.89 nM and 1.32 nM, respectively. Also, the koff in experiment [3] turned out to be 0.00746 s⁻¹; in experiment [5] it was 0.000306 s⁻¹. For the same molecule, the kon in experiment [3] turned out to be 946000 M⁻¹ s⁻¹; in experiment [5], 333000 M⁻¹ s⁻¹. The “EC50 (read off the curve)” value in experiment [4] is around 10 ng/mL. For the same molecule, the “IC50 (read off the curve)” value in experiment [6] is around 100 ng/mL. The IC50 in experiment [7] came out at 0.818 ng/mL. For the same molecule, the binding result in [8] is “no binding”; in experiment [9], “no binding (tested: 10 µg/mL and 1 µg/mL)”; in experiment [11] it was “no binding (tested: 10 ug/mL)”; in experiment [13] it was “no binding (tested: 10 ug/mL)”.

B2: 91D5-HZ2-IgG1-1D (antibody)
heavy: EVQLVQSGAEVKKPGASVKVSCKASGYTFTDYYMNWVREAPGQGLEWMGEINPKYGDTTYNQKFKDRATLTVDKSTSTAYMELSSLRSDDTAVYYCAKGIRLFDSWGQGTLVTVSSASTKGPSVFPLAPSSKSTSGGTAALGCLVKDYFPEPVTVSWNSGALTSGVHTFPAVLQSSGLYSLSSVVTVPSSSLGTQTYICNVNHKPSNTKVDKRVEPKSCDKTHTCPPCPAPEAAGGPSVFLFPPKPKDTLMISRTPEVTCVVVAVSHEDPEVKFNWYVDGVEVHNAKTKPREEQYNSTYRVVSVLTVLHQDWLNGKEYKCKVSNKALPAPIEKTISKAKGQPREPQVYTLPPSREEMTKNQVSLTCLVKGFYPSDIAVEWESNGQPENNYKTTPPVLDSDGSFFLYSKLTVDKSRWQQGNVFSCSVMHEALHAHYTQKSLSLSPGK
light: DIQLTQSPSSLSASVGDRVTITCRPSGNVHNYFAWYQQKPGKSPKLLVYNAKTLAEGVPSRFSGSGSGTDYTLTISSLQPEDFATYYCHHYYTAPFTFGGGTKVEIKRTVAAPSVFIFPPSDEQLKSGTASVVCLLNNFYPREAKVQWKVDNALQSGNSQESVTEQDSKDSTYSLSSTLTLSKADYEKHKVYACEVTHQGLSSPVTKSFNRGEC
notes: as for B1
With B2, in experiment [1], the “EC50 by the PD-1/PD-L1 luciferase reporter system” value was found to be 3.48 nM. The EC50 in [2] was 0.104 nM; in [10], 0.25 nM; in experiment [12], 0.093 nM. Also, the results for the Kd in experiment [3] and in [5] were 5.33 nM and 1.17 nM, respectively. Also, the koff in experiment [3] worked out at 0.00725 s⁻¹; in experiment [5], 0.00023 s⁻¹. Besides, the kon in [3] was 1.36e+06 M⁻¹ s⁻¹; in [5], 384000 M⁻¹ s⁻¹. In experiment [4], the “EC50 (read off the curve)” value is around 10 ng/mL. The binding result in experiment [14] is “no binding”; in experiment [9], “no binding (tested: 10 µg/mL and 1 µg/mL)”; in [11], “no binding (tested: 10 ug/mL)”; in experiment [13], “no binding (tested: 10 ug/mL)”. Moreover, the “IC50 (read off the curve)” value in experiment [6] was around 200 ng/mL. This molecule registered an IC50 in experiment [7] of 1.32 ng/mL.
